One series addresses eIF4A (human) (UniProt P60842). As to the kind of experiment: ITC. On the technique in general: ITC needs no label: the signal is the heat of the interaction.
Series [1] has as its target eIF4G-MC (83.5 kDa fragment of human eIF4GI, residues 712-1451) (human) (UniProt Q04637). The series is described as follows: SEC.
Series [2] has the same target. As to the kind of experiment: SAXS.
For another series, the target named is His6-eIF4G-MC (human) (UniProt Q04637). The series is described as follows: SPR.
Sequence of His6-eIF4G-MC (human) (Q04637 711-1450): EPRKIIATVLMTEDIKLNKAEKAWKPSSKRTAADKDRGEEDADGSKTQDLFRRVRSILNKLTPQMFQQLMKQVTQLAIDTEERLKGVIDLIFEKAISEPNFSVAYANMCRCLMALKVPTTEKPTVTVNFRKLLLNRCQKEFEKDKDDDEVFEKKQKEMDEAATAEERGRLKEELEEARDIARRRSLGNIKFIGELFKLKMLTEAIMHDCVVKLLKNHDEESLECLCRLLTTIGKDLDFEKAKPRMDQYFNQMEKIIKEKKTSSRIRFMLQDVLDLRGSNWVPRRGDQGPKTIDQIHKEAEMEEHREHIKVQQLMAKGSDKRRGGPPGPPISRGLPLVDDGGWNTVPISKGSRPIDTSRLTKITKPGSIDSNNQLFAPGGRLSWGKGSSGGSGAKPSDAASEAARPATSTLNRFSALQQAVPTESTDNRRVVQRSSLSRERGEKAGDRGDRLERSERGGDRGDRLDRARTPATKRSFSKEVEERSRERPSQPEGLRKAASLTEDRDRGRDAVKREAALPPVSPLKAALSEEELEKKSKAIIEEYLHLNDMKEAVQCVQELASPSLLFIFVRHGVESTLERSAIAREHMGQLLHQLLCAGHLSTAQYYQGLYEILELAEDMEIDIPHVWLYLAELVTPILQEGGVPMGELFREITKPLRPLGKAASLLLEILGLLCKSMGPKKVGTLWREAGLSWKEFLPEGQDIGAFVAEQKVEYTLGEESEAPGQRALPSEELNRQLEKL
The target in series [3] is eIF4G-MC (83.5 kDa fragment of human eIF4GI, residues 712-1451) (human) (UniProt Q04637). As to the kind of experiment: ITC.
Sequence of eIF4G-MC (83.5 kDa fragment of human eIF4GI, residues 712-1451) (human) (Q04637 711-1450): as above
The next series deals with eIF4G-MC (F978A) (human) (UniProt Q04637). As to the kind of experiment: ITC.
Sequence of eIF4G-MC (F978A) (human) (Q04637 711-1450 F977A): as the sequence (Q04637 711-1450) above, with F267A counted along it
Another series has as its target eIF4A;eIF4BΔC (human;human, UniProt P60842;P23588 1-406;1-431, |). As to the kind of experiment: pull-down.
For another series, the target named is eIF4B (human, UniProt P23588 1-611). The series is described as follows: pull-down.
Sequence of eIF4B (P23588 whole entry): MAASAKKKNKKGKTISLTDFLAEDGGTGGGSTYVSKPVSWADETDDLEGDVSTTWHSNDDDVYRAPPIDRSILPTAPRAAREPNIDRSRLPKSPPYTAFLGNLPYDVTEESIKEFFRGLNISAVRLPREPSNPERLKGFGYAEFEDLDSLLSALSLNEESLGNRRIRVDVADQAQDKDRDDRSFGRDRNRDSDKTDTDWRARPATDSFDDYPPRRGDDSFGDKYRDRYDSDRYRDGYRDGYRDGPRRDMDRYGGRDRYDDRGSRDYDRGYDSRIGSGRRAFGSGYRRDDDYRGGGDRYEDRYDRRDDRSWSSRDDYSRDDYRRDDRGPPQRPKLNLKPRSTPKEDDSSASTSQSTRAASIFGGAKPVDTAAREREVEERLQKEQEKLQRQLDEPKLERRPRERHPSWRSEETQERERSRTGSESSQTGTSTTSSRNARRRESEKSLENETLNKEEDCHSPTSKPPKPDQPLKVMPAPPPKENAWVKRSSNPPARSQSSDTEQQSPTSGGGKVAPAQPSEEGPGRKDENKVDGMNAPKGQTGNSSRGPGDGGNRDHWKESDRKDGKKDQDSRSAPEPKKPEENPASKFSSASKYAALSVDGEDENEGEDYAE
Another series concerns the target eIF4A;eIF4B (human;human, UniProt P60842;P23588 1-406;1-611, |). The series is described as follows: pull-down.

Sequence of eIF4G-MC (83.5 kDa fragment of human eIF4GI, residues 712-1451) (Q04637 711-1450): as the sequence (Q04637 711-1450) above

Take “eIF4G-MC (83.5 kDa fragment of human eIF4GI, residues 712-1451) (from UniProt Q04637-8 712-1451) (domain or fragment)”: in the series with eIF4A (human), the KD high-affinity site turned out to be 42 nM and the KD low-affinity site was 1600 nM.

Regarding “eIF4A (from UniProt P60842 1-406) (enzyme)”, the stoichiometry N (eIF4A per eIF4G-MC) in [1] and in series [2] was 1 each time. Also, the KD high-affinity site turned out to be 67 nM with His6-eIF4G-MC (human) and 50 nM in [3]. In [3], the KD low-affinity site worked out at 775 nM. In addition, the Kd with eIF4G-MC (F978A) (human) is 417 nM. Besides, in the series with eIF4G-MC (F978A) (human), the stoichiometry N (eIF4A per eIF4G-MC (F978A)) turned out to be 1.

With UUUUUUUUUUUUUUUUUUUUUUUUUUUUUU (ssRNA) [pU30-biotin], the binding result with eIF4A;eIF4BΔC, with eIF4B and with eIF4A;eIF4B was “binds” throughout.

By Kd is commonly meant the concentration at which binding is half-saturated. High values mean a looser complex, low ones a tighter complex.

For the origin of these results see PMC3074137.
